Data: patent US20260167721A1 (ABLEXIS, published 2026)
One block for each binder: values may come before it.

Key:
recombinant CD3 proteins [1] = biological target: T1, recombinant CD3 proteins (UniProt P07766 23-126); assay: Octet BLI, recombinant CD3; Full R^2 0.603*
T1 construct: elsewhere it uses human CD3 E/D and E/G heterodimers

recombinant CD3 proteins [2] = biological target: T1, recombinant CD3 proteins; assay: Octet BLI, recombinant CD3; Full R^2 0.974
recombinant CD3 proteins [3] = biological target: T1, recombinant CD3 proteins; assay: Octet BLI, recombinant CD3; Full R^2 0.990

T1 sequence (P07766 23-126): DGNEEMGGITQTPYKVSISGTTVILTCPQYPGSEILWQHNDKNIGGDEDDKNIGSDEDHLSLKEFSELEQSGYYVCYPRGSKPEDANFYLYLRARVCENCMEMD

Kd (recombinant CD3 proteins [1]): 0.0307 µM
koff (recombinant CD3 proteins [1]): 0.00421 s⁻¹
kon (recombinant CD3 proteins [1]): 137000 M⁻¹ s⁻¹
B1: CD3 × CD33-BspAb99 (bispecific antibody)
chain 1: not shown
chain 2: EVQLVQSGAEVKKPGSSVKVSCKASGYTITDSNIHWVRQAPGQSLEWIGYIYPYNGGTDYNQKFKNRATLTVDNPTNTAYMELSSLRSEDTAFYYCVNGNPWLAYWGQGTLVTVSSASTKGPSVFPLAPSSKSTSGGTAALGCLVKDYFPEPVTVSWNSGALTSGVHTFPAVLQSSGLYSLSSVVTVPSSSLGTQTYICNVNHKPSNTKVDKRVEPKSCDKTHTCPPCPAPEFEGGPSVFLFPPKPKDTLMISRTPEVTCVVVDVSHEDPEVKFNWYVDGVEVHNAKTKPREEQYNSTYRVVSVLTVLHQDWLNGKEYKCKVSNKALPASIEKTISKAKGQPREPQVCTLPPSREEMTKNQVSLSCAVKGFYPSDIAVEWESNGQPENNYKTTPPVLDSDGSFFLVSKLTVDKSRWQQGNVFSCSVMHEALHNRFTQKSLSLSPGK
chain 3: DIQLTQSPSTLSASVGDRVTITCRASESLDNYGIRFLTWFQQKPGKAPKLLMYAASNQGSGVPSRFSGSGSGTEFTLTISSLQPDDFATYYCQQTKEVPWSFGQGTKVEVKRTVAAPSVFIFPPSDEQLKSGTASVVCLLNNFYPREAKVQWKVDNALQSGNSQESVTEQDSKDSTYSLSSTLTLSKADYEKHKVYACEVTHQGLSSPVTKSFNRGEC

Kd (recombinant CD3 proteins [2]): 0.235 µM
koff (recombinant CD3 proteins [2]): 0.0831 s⁻¹
kon (recombinant CD3 proteins [2]): 354000 M⁻¹ s⁻¹
B2: CD3 × CD33-BspAb100 (bispecific antibody)
chain 1: EVQLVESGGGLVKPGGSLRLSCAASGFTFSNYYMNWVRQAPGKCLERVSSISSSSNYIYYADSVKGRFTISRDNAKNSLYLQMNSLRAEDTAVYYCARDRRELPLDYWGQGTVVTVSSGGGGSGGGGSGGGGSGGGGSSYELTQPPSVSVSPGQTARITCSGDALPKKYAYWYQQKSGQAPVLVIYEDSKRPSGIPERFSGSSSGTMATLTISGAQVEDEADYYCYSTDSSGNHWVFGCGTKLTVLDKTHTCPPCPAPEFEGGPSVFLFPPKPKDTLMISRTPEVTCVVVDVSHEDPEVKFNWYVDGVEVHNAKTKPREEQYNSTYRVVSVLTVLHQDWLNGKEYKCKVSNKALPASIEKTISKAKGQPREPQVYTLPPCREEMTKNQVSLWCLVKGFYPSDIAVEWESNGQPENNYKTTPPVLDSDGSFFLYSKLTVDKSRWQQGNVFSCSVMHEALHNHYTQKSLSLSPGK
chain 2: B1 chain 2
chain 3: B1 chain 3

Kd (recombinant CD3 proteins [3]): 0.0162 µM
koff (recombinant CD3 proteins [3]): 0.00402 s⁻¹
kon (recombinant CD3 proteins [3]): 249000 M⁻¹ s⁻¹
B3: CD3 × CD33-BspAb115 (bispecific antibody)
chain 1: NFMLTQPHSVSESPGKTVTISCTRTSGSIASNYVQWYQQRPGSSPTTVIYEDNQRPSGVPDRFSGSIDSSSNSASLTISGLKTEDEAAYYCQSYDRSNRVFGCGTKLTVLGGGGSGGGGSGGGGSGGGGSQVQLQESGPGLVKPSETLSLTCTVSGGSISSYYWSWIRQPAGKCLEWIGRIYTSGSTKYNPSLKSRVTMSVDTSKNQFSLKLISVTAADTAVYFCARERIRDLYFDYWGQGTLVTVSSDKTHTCPPCPAPEFEGGPSVFLFPPKPKDTLMISRTPEVTCVVVDVSHEDPEVKFNWYVDGVEVHNAKTKPREEQYNSTYRVVSVLTVLHQDWLNGKEYKCKVSNKALPASIEKTISKAKGQPREPQVYTLPPCREEMTKNQVSLWCLVKGFYPSDIAVEWESNGQPENNYKTTPPVLDSDGSFFLYSKLTVDKSRWQQGNVFSCSVMHEALHNHYTQKSLSLSPGK
chain 2: B1 chain 2
chain 3: B1 chain 3
